From article PMC13129248

Molecular target: DENV C (dengue virus capsid protein) (Dengue virus 2, strain New Guinea, UniProt O92835 1-100)
Test: Trp fluorescence quenching and lifetime

## AAAGACCAACACCAAGAGGCACAGTAATGGACATT (ssDNA) [C]
  binding result: binds
